Target: T1, MK2-activating peptide (transduction domain YARAAARQARA coupled to a Kaposin-derived region)
T1 chain: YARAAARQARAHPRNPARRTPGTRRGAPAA

B1: MK2 (endogenous, in mouse embryonic fibroblasts, MEF) (protein)
chain: MLSGSPGQTPPAPFPSPPPPAPAQPPPPFPQFHVKSGLQIRKNAITDDYKVTSQVLGLGINGKVLRIFDKRTQQKFALKMLQDCPKARREVELHWRASQCPHIVHIVDVYENLYAGRKCLLIVMECLDGGELFSRIQDRGDQAFTEREASEIMKSIGEAIQYLHSINIAHRDVKPENLLYTSKRPNAILKLTDFGFAKETTSHNSLTTPCYTPYYVAPEVLGPEKYDKSCDMWSLGVIMYILLCGYPPFYSNHGLAISPGMKTRIRMGQYEFPNPEWSEVSEEVKMLIRNLLKTEPTQRMTITEFMNHPWIMQSTKVPQTPLHTSRVLKEDKERWEDVKEEMTSALATMRVDYEQIKIKKIEDASNPLLLKRRKKARAVEDAALAH
- phosphorylated HSP27 by immunoblot, time course at 50 µM peptide, MEF: significant MK2 activation was observed by 15 minutes of treatment

Source: patent publication US20140256614
